Measured values taken from patent publication US20150299255A1.

Biological target: lectin SNA1 from Sambucus nigra (Sambucus nigra) (UniProt Q41358)
Sequence (Q41358 29-289 limits assumed, chain 1 of 2): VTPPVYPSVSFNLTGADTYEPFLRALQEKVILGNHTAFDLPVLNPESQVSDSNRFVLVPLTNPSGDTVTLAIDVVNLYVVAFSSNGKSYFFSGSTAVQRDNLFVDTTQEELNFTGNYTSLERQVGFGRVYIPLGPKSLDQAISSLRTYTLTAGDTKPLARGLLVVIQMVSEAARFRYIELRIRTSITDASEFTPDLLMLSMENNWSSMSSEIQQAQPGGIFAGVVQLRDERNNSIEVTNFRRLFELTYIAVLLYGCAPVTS
Sequence (Q41358 309-570 limits assumed, chain 2 of 2): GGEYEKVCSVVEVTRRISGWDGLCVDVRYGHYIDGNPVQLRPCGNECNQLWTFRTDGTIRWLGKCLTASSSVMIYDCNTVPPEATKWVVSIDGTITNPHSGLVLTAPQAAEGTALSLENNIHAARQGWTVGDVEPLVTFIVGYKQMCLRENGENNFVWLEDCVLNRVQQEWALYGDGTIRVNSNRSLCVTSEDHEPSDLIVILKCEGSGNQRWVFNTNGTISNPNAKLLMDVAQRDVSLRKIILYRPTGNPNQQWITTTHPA

Chain of fetuin (P12763 19-359): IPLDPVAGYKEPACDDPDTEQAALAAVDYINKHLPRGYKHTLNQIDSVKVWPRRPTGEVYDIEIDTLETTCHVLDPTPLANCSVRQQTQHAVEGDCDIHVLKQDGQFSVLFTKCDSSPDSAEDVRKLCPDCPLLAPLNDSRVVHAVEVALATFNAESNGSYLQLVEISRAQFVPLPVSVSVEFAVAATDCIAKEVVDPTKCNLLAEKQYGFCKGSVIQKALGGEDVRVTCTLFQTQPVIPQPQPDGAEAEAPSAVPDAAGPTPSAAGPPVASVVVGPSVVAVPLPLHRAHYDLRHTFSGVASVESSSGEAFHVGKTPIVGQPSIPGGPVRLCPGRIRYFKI

For fetuin (from UniProt P12763 19-359), which amount of fetuin giving essentially complete inhibition of SVH1C binding (pmoles per well) is on record?
Its amount of fetuin giving essentially complete inhibition of SVH1C binding (pmoles per well) is 500.

And the percent inhibition of SVH1C binding at 100 pmoles fetuin per well?
Its percent inhibition of SVH1C binding at 100 pmoles fetuin per well is 50%.
